Experiment [1] has as its target CSFV sE2 (soluble E2 protein, 693-1020aa) with (His)6 tag (classical swine fever virus). Nature of the experiment: SPR; Biacore T100; […] (20 μg/ml) […]; 20 mM Hepes, 150 mM NaCl, 0.005% Tween 20, pH 7.4, […]; 1:1 binding model.
Experiment [2] has the same target. The experiment in a line: SPR; Biacore […] (20 μg/ml) […]; 20 mM Hepes, 150 mM NaCl, 0.005% Tween 20, pH 7.4, […]; 1:1 binding model.

The Kd is a measure of binding affinity in units of concentration.

On to “soluble metalloproteinase domain of pig ADAM17 (sMP) with (His)6 tag (from UniProt O77636 18-477) (domain or fragment)”, for which the Kd in experiment [1] was 100 nM; in experiment [2] it was 3200 nM.

Source of the values: article PMC7971878.
